Measurements taken from PMC6817822.

Target: PR55α regulatory subunit of PP2A (human (endogenous in CD18/HPAF)) (UniProt P63151)
Experiment: co-IP; PR55α immunoprecipitated with anti-PR55α (2G9) from CD18/HPAF cells stably transduced with empty vector, Flag-YAP or Flag-YAP(5SA); immunoblotted with anti-PR55α (100C1) and anti-Flag (M2)

UniProt P63151, sequence (P63151 whole entry): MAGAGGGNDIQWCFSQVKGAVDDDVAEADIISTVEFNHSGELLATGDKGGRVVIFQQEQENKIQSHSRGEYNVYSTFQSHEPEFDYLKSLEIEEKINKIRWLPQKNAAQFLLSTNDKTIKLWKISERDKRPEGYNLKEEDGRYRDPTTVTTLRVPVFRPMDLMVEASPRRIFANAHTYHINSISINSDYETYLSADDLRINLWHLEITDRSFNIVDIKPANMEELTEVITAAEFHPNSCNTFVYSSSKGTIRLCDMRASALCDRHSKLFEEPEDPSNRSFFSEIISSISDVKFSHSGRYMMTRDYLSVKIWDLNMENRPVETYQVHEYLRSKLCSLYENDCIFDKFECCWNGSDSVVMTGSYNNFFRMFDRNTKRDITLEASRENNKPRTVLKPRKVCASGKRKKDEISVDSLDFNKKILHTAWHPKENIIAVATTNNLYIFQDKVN

- fold of the level in the anti-PR55α immunoprecipitates against Flag-YAP(5SA): 28 fold
Substance: Flag-YAP(WT) (natural protein)
